Tests used:
[1] = target: T1, soluble aggregates of tau (STAs) (human, UniProt P10636-8 1-441); assay: ELISA; conditions: both partners purified
T1 construct: also called soluble Tau aggregates; SPAs (as a member of the group)

[2] = target: T2, soluble aggregates of Aβ_(1–42) (SBAs) (human, UniProt P05067 672-713); assay: ELISA; conditions: both partners purified
T2 construct: also called soluble Aβ aggregates; SPAs (as a member of the group)

T1 sequence (P10636 other isoform, or with tags, fused parts or gaps): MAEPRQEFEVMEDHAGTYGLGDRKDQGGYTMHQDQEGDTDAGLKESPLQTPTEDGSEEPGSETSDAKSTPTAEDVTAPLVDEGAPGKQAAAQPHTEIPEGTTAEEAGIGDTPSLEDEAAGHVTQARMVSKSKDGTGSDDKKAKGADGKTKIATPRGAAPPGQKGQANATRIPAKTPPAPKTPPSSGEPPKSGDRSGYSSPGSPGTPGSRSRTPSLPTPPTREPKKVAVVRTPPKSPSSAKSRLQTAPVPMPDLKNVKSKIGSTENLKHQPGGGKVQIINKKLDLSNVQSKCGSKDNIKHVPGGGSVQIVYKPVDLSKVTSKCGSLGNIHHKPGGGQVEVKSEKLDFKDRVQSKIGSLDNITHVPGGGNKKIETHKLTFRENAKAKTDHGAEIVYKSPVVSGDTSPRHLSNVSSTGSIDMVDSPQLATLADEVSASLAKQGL

B1: recombinant murine prion protein PrP_(23–231) (domain or fragment)
chain: not shown
notes: also called full-length PrP
binding result [1]: binds
binding result [2]: binds
